Measured values taken from the DeepSol protein solubility set.

Experiment: soluble on expression in E. coli; label from the status in PepcDB or PDB records
For “MDEKIAPHLEELTRALGDLEKTGIRAEFYKLLAFRVSPEVAKETILRKFGGKRKILKVKDLSASLKNFEITGRILDMGEKALRPQEGVQDGPSKLYTGILADETGSVMFSSWKELPGSIGDVINIKNAYTRLWQNRIRLSIGEQSLVSGVSDSSLPGLSELSKTPLKKLIEIGSADFSVSTTACVLQLSHREVPVRGKQSKVISGVLADETARLPFTAWVELPGIDIGSIIRIEGAQIRMFRGMPSINFISSTRISPVPAEEAEKLAFTFESSSKDPSPIKIEEIASRDSMFDVVTAGNIVSVRPGSGIISRCPECSRVIQKSNCRVHGRVEGIRDMRIKAVLDDGTGAMSVMFPRELAEIIYGKTLEEAEQLMFSDISKDAVYEDLRRFLTGRYLAVRGNSSNGEYGASFVAENAWVPEDDLAVRVVELLRRLGPDEGEQSSEVSREGISFALEHHHHHH”, the “soluble on expression in E. coli” value was “soluble”. For “MILIIYAHPYPHHSHANKRMLEQAGTLENVEIRSLYHLYPDFNIDVAAEQEALSRASLIVWQHPMQWYSVPPLLKLWMDKVLTHGWAYGHGGTALHGKHLLWAVTTGGGENHFAIGSHPGFDVLSQPLQATALYCGLKWLSPFAMHCTFICDDDTLQAQARQYKQRLLAWQEVNHG”, the “soluble on expression in E. coli” value was “not soluble”. In the case of “MSLHVGAGKSFGTAEANENERRWNDDKIDRKNQDPTNHYDRTRMKLNFEIGPDGKIHPLGYQEKSLEVRLQERLDELGWKPFKADSKIQPNCCAKFVFGGNHDRTLEMAFGNQSVNLEKGADNSHLHRCEEIENWAKDVYDWCVQIYGQENIVGFQVHLDESSPHIHALVVPVGIRPKSGRKCVMWSAKFGKDRYEYGQILKEMHTFLYEDVGSKYGLERGDSIEGRNVHHLHKRDYIRKLTKEAKQAEKAVKGLQSMMRNLESKIFSYRLQLEETEKELASGKITLDRYEAQKADIQKLIAEYQTKLEDKTDKLHAKEQELERLTADATKARSVVQPFRNHKVDFMPPQITEKVPLFGTDKWVERQNQRIAKQFTEIVRKIESLYRNDAARQVEAAQRNVLADYGELYQLRRENKSLSDTNESLESELNTLLDQLAIPSARNLIFAVADALIGGQPVPVSSGGGGSTSDLPWDGRRSDEEEEAYRRRCLMFAIVTVCKQQTKSRREGHHHHHH”, the “soluble on expression in E. coli” value is reported as “soluble”. In the case of “MQVLSMIFTREILEEAINYGLTKNTTSFTRIKAGIYKTEREKHRDLPSHYIYTACEDASERLDSFNKLKKRGRSYTDRPSVRRVTVHLDDHLWKFSLNVISIATKRGRVCISPIFPKIFWRYYNDNWLIASGARFKLLKGNVVEFFIVFKKDVKSYDPRGFIPVDLNEDSVSVLINGKPILLETNTRMITLGYEYKRRSITNGRSTKDREVRRKLRERDKKLDVRRKFAKLIVKEAFGSRSAIVLEDLPRGVPEHMVKGVKDKQLRLRIYRSAFSSMKNAIVEKAREFGVPVILVDPSYTSSICPVHGSKIIYQPDGGSAPRVGVCGKGGERWHRDVVALYNLRKRAGDVSPVPLGSKESHDPPVVQVVEGLEHHHHHH”, the “soluble on expression in E. coli” value is reported as “soluble”. For “MSLNNKVIKKEVEEYLSRYFEGKDNYNKRVYESMNYSLNAGGKRVRPLLLLASYAIYNKDYKEVIDIAAAIEMIHTYSLIHDDLPCMDNDDLRRGRPTNHKIFGYSIALLAGDGLLNEAMNIMFKYCIGKGEEALKACLMISKAASSDGMIGGQVVDILSEGKKINEDELRYMHKKKTGELIKAAVVSGAILGGAPLHDVELLSQYGDKLGLAFQIEDDILDIIGDTKIMGKTSKSDLENDKCTYVTLYGIDKCKSICRELTDECLDIIGKIQGNTELLKEITELLLKRNREGHHHHHH”, the “soluble on expression in E. coli” value was “soluble”. In the case of “MGSDKIHHHHHHMYYEKAVQKTINWIESHLHEQISNEDIVNVSSFSKFHFHRIFQKEVGMSVASYIRLRRLANAAAALLYTDHRIIDIALYYQFESQEAFTRTFKKMYHMPPGAYRTFMKRFTSKKEESYMEKKMKGWVLSGSHPFQFEMGIDRENVHQGKASGYLKSTMVQDIGEFATMMQQFKADRYLGKRLRLSSFIKTKGVQHFASLWMRVDSAADDVLQFDNMSNRPITGTTNWNHYAIVLDVPENSAVISFGVQLSGPGQVWMDHVVFEEVDESVPSTNLEMPGELLDEPVNLSFEEELQK”, the “soluble on expression in E. coli” value is reported as “not soluble”. In the case of “IDKIENYEQSTSQLREEIKTLYNEVIDIGKKLSQERRRVARELRDHIVSEIQNLQMKDANLEISFKPLDEPTIEGIEFVEFLISPNRGEPLKSLNKIASGGELSRIMLALKSIFVKSRGQTAILFDEVDSGVSGQAAQKMAEKMRDIAQYIQVICISHLPQVASMSDHHLLISKASNADRTTTQVKELKDENKIDEIARMISGASVTELTRENAKEMIKQNHNI”, the “soluble on expression in E. coli” value is reported as “not soluble”.
